A short description of data set [1]: Pharmacokinetic study, single intravenous dose. It is filed as in vivo, cynomolgus monkey. How it is done: Pharmacokinetic analysis of antibody clone 129D3 formatted as various IgG1 molecules was performed. The following antibodies were analysed: Wild-type IgG1 129D3 (129D3-WT), IgG1 129D3 with the mutations M252Y/S254T/T256E in the Fc region (129D3-YTE), and IgG1 129D3 with the mutations H433K and N434F in the Fc region (129D3-HN).
Cynomolgus monkeys (3 per antibody tested) were injected intravenously with a single 5 mg/kg dose of 129D3-WT, 129D3-YTE, or 129D3-HN. Samples were taken at different time points and tested for plasma concentration of mAb by the ELISA. Specifically, a microtiterplate (Maxisorb Nunc) was coated with 1 ug/ml IL-6 (Immunotools) in PBS overnight at 4C. The plate was washed 2 times with PBS-Tween and blocked for 2 hours with 300 μl PBS-1% casein. After 2 washes with PBS-Tween, the samples were applied. All dilutions were made in 1% pooled blank plasma (this is a pool from 3 naive cynomolgus monkeys, see chapter 4.2). The samples were allowed to bind for 2 hours at RT. Plates were then washed 5 times with PBS-Tween and goat biotinilated anti-human IgG heavy and light chain monkey adsorbed polyclonal antibodies were applied at a 1000-fold dilution (Bethyl, catno: A80-319B) and allowed to bind for 1 hour at RT. After washing the plates 5 times with PBS-Tween, streptavidin conjugated with HRP (Jackson Immunoresearch 016-030-084) was applied at a 300,000-fold dilution and allowed to bind for 1 hour at RT. Plates were then washed 5 times with PBS-Tween and a 1:1 mixture of TMB (calbiochem CL07)-s(HS)TMB weakener (SDT, #sTMB-W) was added. The staining was allowed to proceed for 10 minutes and then stopped with 0.5 M […], after which the Optical Density was measured at 450 nm. The samples were analysed four times and 129D3-WT (from the same batch that was injected into the animals) was used for a standard curve.
The pharmacokinetic profiles for the different 129D3 IgG1 antibodies are shown graphically in FIG. 12 (the results are shown are the average result of the group of monkeys).

Another data set relates to RXF393 cells. Put plainly: Renal cell cancer mouse xenograft model. The class given is in vivo. Conditions: 3 mg/kg. How it is done:
The in vivo efficacy of clones 68F2 was investigated in a renal cell cancer mouse xenograft model. […] Briefly, RXF393 cells (2×10^6) were injected subcutaneously at both lateral sides of a nude mouse. Tumors were allowed to grow to a volume between of 50 en 300 mm^3, prior to antibody administration. 90% of the injected mice developed a tumor. 40 mice were split into 5 groups of 8 mice. Each group was received intraperatoneal injection of either PBS (control) or a specific dose of clone 68F2 (1, 3, 10, or 30 mg/kg). Tumor size and survival was monitored twice per week.

The next data set has as its system IGROV-1 epithelial cells. Put plainly: Epithelial ovarian cancer mouse xenograft (survival). The class given is in vivo. The settings on record: 4 or 20 mg/kg biweekly, nude mice. Here is the method: The in vivo potency of clone 129D3 was determined using a mouse xenogaft model. IGROV-1 epithelial cells (5×10^6) were injected subcutaneously into nude mice. After three days, mice were administered 129D3 or CNTO328 biweekly, at a dosage of 4 or 20 mg/kg. There were 5 mice per group and 10 mice in the control group. Percentage survival of mice in each study group was determined each week and the results plotted as a survival curve.

Data set [2] can be described thus: Thermal stability (melting temperature), functional antibody measured in Biacore. It is filed as physicochemical. Here is the method: To examine the thermal stability of the germlined and the parental versions of 68F2 in full length human IgG1 format, antibody samples were incubated at a concentration of 100 μg/ml (in PBS) at 4, 50, 55, 60, 65, 70 and 75° C. for 1 hour. Following this, the samples were cooled down slowly during a period of 15 minutes to 25° C. and kept at this temperature for 2 hours, after which they were stored overnight at 4° C. Following centrifugation to remove precipitates (of denatured antibody), the concentration of functional antibody remaining in solution was measured using Biacore (1/10 dilution in PBS and 1/10 in HBSEP). The slope of the association curve obtained after injection on the IL-6 immobilized chip is a measure of the concentration of functional antibody.
A general note: Surface plasmon resonance follows binding to a sensor surface in real time, without labels.

A short description of data set [3]: Production level of IgG1 after transient expression in HEK293E cells. Conditions: IgG1, protein A purified. How it is done: The VH and VL of the germlined versions of 68F2 were recloned in pUPE Heavy Chain and Light Chain expression vectors, respectively, for transient expression of full-length IgG1 antibodies. After transient expression in HEK293E cells, IgG1 antibodies were purified with protein A and quantified by measurement of OD280. Table 19 below summarizes the production levels of the germlined derivatives together with the levels of the 68F2 parental antibody. Potencies (in pM) were also measured in a 7TD1 based proliferation assay for each antibody.

Data set [4] addresses T1, cynomolgus monkey IL-6 (Macaca fascicularis, UniProt P79341).
T1 construct: His
Put plainly: Surface plasmon resonance (Biacore), cynomolgus monkey IL-6. The class given is binding. Conditions: cy/cyno; periplasmic fractions, 29B11 chain shuffled.

For data set [5], the target named is T1, cynomolgus monkey IL-6. The data set is described as above. Conditions: periplasmic fractions, 24D10 chain-shuffled Fabs. It is filed as binding.
Data set [6] deals with T2, eukaryotically produced human IL-6 (Homo sapiens, UniProt P05231).
T2 construct: purchased Humanzyme HZ-1044; host or cells: Human Embryonic kidney cells
T2 sequence (P05231 30-212): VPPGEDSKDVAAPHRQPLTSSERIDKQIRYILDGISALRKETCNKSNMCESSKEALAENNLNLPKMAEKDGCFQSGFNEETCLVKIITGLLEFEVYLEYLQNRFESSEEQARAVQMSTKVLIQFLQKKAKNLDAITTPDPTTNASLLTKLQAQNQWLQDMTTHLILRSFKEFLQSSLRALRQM
Put plainly: Surface plasmon resonance (Biacore), eukaryotically produced human IL-6 coated on CM5 chip. It is filed as binding. The settings on record: periplasmic fractions.

In data set [7] the target is T3, bacterially produced human IL-6 (Homo sapiens, UniProt P05231).
T3 construct: His
T3 sequence (P05231 30-212): as above
Put plainly: Surface plasmon resonance (Biacore), bacterially produced human IL-6 coated on CM5 chip. The class given is binding. The settings on record: periplasmic fractions.

[8] abbreviates: single intravenous administration, cynomolgus monkey, non-compartmental.

Consider 3 molecules from patent US11827701B2, “IL-6 binding molecules” (argenx BV, priority 2012, dated 2023).

Substitutions are numbered along the chain they refer to. Several values for one entry are separate records, joined by “and”; a condition that tells them apart may be missing. Identical values can stand only once.

T1 sequence (P79341 28-212): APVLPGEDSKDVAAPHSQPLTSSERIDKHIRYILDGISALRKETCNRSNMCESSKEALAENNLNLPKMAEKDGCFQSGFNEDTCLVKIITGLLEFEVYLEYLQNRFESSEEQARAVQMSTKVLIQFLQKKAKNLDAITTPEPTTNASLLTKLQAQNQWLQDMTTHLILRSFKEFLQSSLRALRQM

B1: 129D3: final germlined variant of 68F2; 129D3-WT is wild-type IgG1 129D3 (antibody, listed as Lama glama, V domains shown)
VH: EVQLQESGPGLVKPSQTLSLTCTVSGGSITSRYYAWSWIRQPPGKGLEWIGVIDYDGDTYYSPSLKSRVSISWDTSKNQFSLKLSSVTPADTAVYYCARDPDVVTGFHYDYWGQGTMVTVSS
VL: QSALTQPPSVSGTPGQSVTISCAGANNDIGTYAYVSWYQQLPGTAPKLMIYKVTTRASGIPDRFSGSKSGNTASLTISGLQAEDEADYYCASYRNFNNAVFGTGTKLTVL
modifications: IgG1 constant regions
notes: final germlined variant of 68F2; 129D3-WT is wild-type IgG1 129D3
Take B1: the half-life result in data set [1] (5 mg/kg i.v.) is “about 15.6 days”. Besides, in data set [1] (setting [8]), the “MRT (Mean Residence Time)” value came out at 22.4 days, the “T½ (elimination half-life)” value stood at 15.6 days and the “k (mean elimination rate constant)” value amounted to 0.0468 day⁻¹. Moreover, in the data set on RXF393 cells, the “survival relative to control” value was “effective at delaying death of mice relative to control” and the tumor outgrowth result was “effective at inhibiting tumor outgrowth”. Moreover, the “in vivo potency (survival)” value with IGROV-1 epithelial cells is listed as “superior to the benchmark CNTO328 IL-6 antibody”. In data set [2] (human IgG1), the “Tm higher than the parental 68F2 antibody” value was 3 °C. Moreover, the Tm entry in data set [2] (human IgG1, 100 μg/ml in PBS, 1 hour) was “around 70 °C”.

B2: 129F2: germlined variant of 68F2, IgG1 (antibody, listed as Lama glama, V domains shown)
VH: B1 VH with S70T, P89A, A90E
VL: B1 VL with S17T, A82S, T103G
modifications: IgG1 constant regions
notes: germlined variant of 68F2, IgG1
Regarding B2, in data set [3], the “production level / production yield” value came out at 9 µg/mL.

B3: 55H1c: 29B11 chain shuffled Fab, periplasmic fraction (antibody, V domains shown)
VH: EVQLVESGGGLVQPGGSLRLSCAASGFTFSSYAMSWVRQAPGKGLEWVSRISSGGISTYYADSVKGRFTISRDNAKNTLYLQMNSLKPEDTAVYYCVRYAWGVQWAFDFWGQGTQVTVSS
VL: AQSVVTQPPSVSGSPGKTVTISCAGTSSDVGYGNYVSWYQQLPGMAPKLLIYDVSKRASGIADRFSGSKSGNTASLTISGLQSEDEADYVCASYRRGGTAVFGGGTHLTVLG
On to B3, for which, in the data set with cynomolgus monkey IL-6 [4], the KA was 1.89e+09 M⁻¹, the ka was 1.16e+06 M⁻¹ s⁻¹ and the kd was determined as 0.000615 s⁻¹. In addition, in the data set with cynomolgus monkey IL-6 [5], the “cyno (off-rate)” value is 4.17E−04 and 4.30E−04 and 3.90E−04. In data set [6] (euk, 29B11 chain shuffled), the KA is 1.02e+10 M⁻¹, the ka stood at 1.13e+06 M⁻¹ s⁻¹ and the kd amounted to 0.000111 s⁻¹. Besides, the “RANKED euk (off-rate)” value in data set [6] (24D10 chain-shuffled Fabs) is 1.01E−04 and 1.06E−04 and 1.13E−04. Further, the Average binding in data set [6] (average over the IL-6 forms) was 773 RU and 770 RU and 873 RU. In data set [7] (bact, 29B11 chain shuffled), this molecule returned a KA of 1e+10 M⁻¹, a ka of 1.28e+06 M⁻¹ s⁻¹ and a kd of 0.000127 s⁻¹. Further, the “Bact (off-rate)” value in [7] (24D10 chain-shuffled Fabs) is 1.35E−04 and 1.40E−04 and 1.26E−04.
